These results are taken from article PMC9482650, “Quantitative fragmentomics allow affinity mapping of interactomes” (Nature Communications, 2022).

Numbering of substitutions follows the chain as printed.

Assay in all cases: holdup assay
Common to all, as to parameters: key: below the threshold = too weak to quantify, mostly under pKd 3.1 to 4

For test [1], the target named is GRID2IP_2, A4D2P6.
Test [2] has as its target T1, SNTG2, Q9NY99.
T1 sequence (Q9NY99 68-166, limits assumed, looked up): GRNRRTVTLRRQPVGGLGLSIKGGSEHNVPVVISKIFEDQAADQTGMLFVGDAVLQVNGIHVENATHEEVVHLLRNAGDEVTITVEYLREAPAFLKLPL

The target in test [3] is T2, PDZD7_3, Q9H5P4.
T2 sequence (Q9H5P4 857-944, limits assumed, looked up): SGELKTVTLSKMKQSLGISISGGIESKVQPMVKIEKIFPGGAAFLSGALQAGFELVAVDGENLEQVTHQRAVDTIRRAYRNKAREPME

Test [4] concerns the target T3, MPP7, Q5T2T1.
T3 sequence (Q5T2T1 134-230, limits assumed, looked up): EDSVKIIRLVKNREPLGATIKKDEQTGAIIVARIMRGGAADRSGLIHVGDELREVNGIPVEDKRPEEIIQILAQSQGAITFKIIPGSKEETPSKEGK

The target in test [5] is PARD3_3, Q8TEW0.
Chain of PARD3_3, Q8TEW0 (Q8TEW0 582-685): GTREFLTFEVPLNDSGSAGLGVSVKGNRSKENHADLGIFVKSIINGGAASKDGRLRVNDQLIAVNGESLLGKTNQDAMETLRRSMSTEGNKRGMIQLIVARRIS
The target of test [6] is T4, APBA1_2, Q02410.
T4 sequence (Q02410 742-832, limits assumed, looked up): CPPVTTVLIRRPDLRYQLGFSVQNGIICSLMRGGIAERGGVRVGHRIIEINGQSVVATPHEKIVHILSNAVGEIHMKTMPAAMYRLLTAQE

Test [7] has as its target T5, HTRA4, P83105.
T5 sequence (P83105 378-476, limits assumed, looked up): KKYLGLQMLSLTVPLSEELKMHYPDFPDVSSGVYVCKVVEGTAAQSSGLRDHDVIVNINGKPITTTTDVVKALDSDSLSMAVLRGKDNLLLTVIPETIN

Test [8] concerns the target T6, DLG3_3, Q92796.
T6 sequence (Q92796 374-475, limits assumed, looked up): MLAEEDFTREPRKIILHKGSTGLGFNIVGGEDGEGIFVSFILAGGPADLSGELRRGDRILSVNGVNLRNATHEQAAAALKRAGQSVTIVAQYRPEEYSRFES

Test [9] concerns the target T7, APBA1_1, Q02410.
T7 sequence (Q02410 651-752, limits assumed, looked up): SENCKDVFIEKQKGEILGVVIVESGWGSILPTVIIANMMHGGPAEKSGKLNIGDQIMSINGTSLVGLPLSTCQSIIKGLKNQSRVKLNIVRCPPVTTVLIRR

For test [10], the target named is T8, MPP6, Q9NZW5.
T8 sequence (Q9NZW5 125-219, limits assumed, looked up): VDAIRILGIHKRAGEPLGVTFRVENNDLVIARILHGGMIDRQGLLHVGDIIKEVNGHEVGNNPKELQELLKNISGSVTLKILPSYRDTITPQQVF

The target in test [11] is T9, GRIP1_2, Q9Y3R0.
T9 sequence (Q9Y3R0 145-248, limits assumed, looked up): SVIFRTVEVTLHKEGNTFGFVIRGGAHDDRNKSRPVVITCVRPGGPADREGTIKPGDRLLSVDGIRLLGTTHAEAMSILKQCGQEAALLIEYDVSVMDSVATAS

The target in test [12] is T10, APBA2_2, Q99767.
T10 sequence (Q99767 654-744, limits assumed, looked up): T4 sequence (Q02410 742-832, limits assumed, looked up) with R10K, R15K, P59A, H65Q, I66A, A70S, Y84F, A89G

For test [13], the target named is MAST1, Q9Y2H9.
Chain of MAST1, Q9Y2H9 (Q9Y2H9 962-1065): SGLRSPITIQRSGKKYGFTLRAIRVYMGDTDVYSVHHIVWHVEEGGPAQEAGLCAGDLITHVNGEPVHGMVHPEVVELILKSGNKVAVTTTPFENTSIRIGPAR
The target in test [14] is DLG5_1, Q8TDM6.
Chain of DLG5_1, Q8TDM6 (Q8TDM6 617-713): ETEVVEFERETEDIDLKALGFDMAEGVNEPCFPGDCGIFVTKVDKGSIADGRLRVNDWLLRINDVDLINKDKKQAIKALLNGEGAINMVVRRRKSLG
Test [15] deals with IL16_3, Q14005.
Chain of IL16_3, Q14005 (Q14005 1107-1207): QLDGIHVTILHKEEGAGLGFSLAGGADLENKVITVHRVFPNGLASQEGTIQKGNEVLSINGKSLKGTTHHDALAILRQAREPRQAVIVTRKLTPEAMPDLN
Test [16] addresses T11, GRIP1_3, Q9Y3R0.
T11 sequence (Q9Y3R0 247-346, limits assumed, looked up): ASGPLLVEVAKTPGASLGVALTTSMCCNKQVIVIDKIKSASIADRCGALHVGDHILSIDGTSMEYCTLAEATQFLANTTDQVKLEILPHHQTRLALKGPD

Test [17] concerns the target T12, ARHGEF11, O15085.
T12 sequence (O15085 42-136, limits assumed, looked up): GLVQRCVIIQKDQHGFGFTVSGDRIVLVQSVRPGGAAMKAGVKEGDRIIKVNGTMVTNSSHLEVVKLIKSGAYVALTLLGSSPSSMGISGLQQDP

Test [18] concerns the target Inadl_4, Q8NI35.
Test [19] deals with IL16_1, Q14005.
Chain of IL16_1, Q14005 (Q14005 210-306): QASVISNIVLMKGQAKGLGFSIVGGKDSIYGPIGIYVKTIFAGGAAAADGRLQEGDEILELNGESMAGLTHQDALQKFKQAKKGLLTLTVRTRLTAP
In test [20] the target is T13, DFNB31_1, Q9P202.
T13 sequence (Q9P202 135-233, limits assumed, looked up): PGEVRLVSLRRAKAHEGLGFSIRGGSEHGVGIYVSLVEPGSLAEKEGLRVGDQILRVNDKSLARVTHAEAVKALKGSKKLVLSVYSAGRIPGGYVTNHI

Test [21] concerns the target NHERF2_2, Q15599.
Test [22] concerns the target GRIP2_5, Q9C0E4.
Test [23] deals with DLG2_3, Q15700.
In test [24] the target is T14, GRIP1_4, Q9Y3R0.
T14 sequence (Q9Y3R0 467-571, limits assumed, looked up): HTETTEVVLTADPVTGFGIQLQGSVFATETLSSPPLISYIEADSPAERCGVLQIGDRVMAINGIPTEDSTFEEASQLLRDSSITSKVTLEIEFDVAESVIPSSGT

Where [25] appears, read: plain residues with an end cap or a label only (N-terminal biotin on a linker: ado-ado).
Setting [26] is: plain residues with an end cap or a label only (N-terminal biotin on a linker: ahx).

Chain of GRID2IP_2, A4D2P6 (A4D2P6 272-370): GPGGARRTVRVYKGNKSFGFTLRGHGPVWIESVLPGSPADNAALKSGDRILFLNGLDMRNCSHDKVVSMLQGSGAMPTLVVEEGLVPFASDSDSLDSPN
Chain of GRIP2_5, Q9C0E4 (Q9C0E4 544-642): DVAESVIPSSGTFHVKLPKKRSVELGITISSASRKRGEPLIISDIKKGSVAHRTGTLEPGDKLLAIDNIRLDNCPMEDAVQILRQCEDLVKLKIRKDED
Chain of Inadl_4, Q8NI35 (Q8NI35 547-651): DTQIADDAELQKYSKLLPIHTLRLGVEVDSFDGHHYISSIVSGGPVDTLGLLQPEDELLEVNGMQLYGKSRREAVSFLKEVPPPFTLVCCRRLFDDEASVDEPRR
Chain of NHERF2_2, Q15599 (Q15599 142-238): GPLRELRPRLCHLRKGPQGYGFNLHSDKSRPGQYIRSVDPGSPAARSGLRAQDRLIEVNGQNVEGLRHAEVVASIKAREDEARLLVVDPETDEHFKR

In the case of KPGKGSETVV [FZD4, Q9ULV1], the pKd result in test [1] (setting [25]) was “below the threshold”; in test [2] (setting [25]), 4.26; in test [3] (setting [25]), 4.67; in test [4] (setting [25]), “below the threshold”; in test [5] (setting [25]), “below the threshold”; in test [6] (setting [25]), 3.64. Moreover, the pKd entry in [7] (setting [25]) was “below the threshold”; in test [8] (setting [25]), 4.02; in test [9] (setting [25]) it was “below the threshold”; in [10] (setting [25]), “below the threshold”; in test [11] (setting [25]) it was “below the threshold”; in test [12] (setting [25]), “below the threshold”. The pKd in [13] (setting [25]) is 4.4; in [14] (setting [25]), 3.54; in test [15] (setting [25]), “below the threshold”; in test [16] (setting [25]), “below the threshold”; in test [17] (setting [25]), 3.69; in test [18] (setting [25]), “below the threshold”. Moreover, the pKd in [19] (setting [25]) was 3.61; in test [20] (setting [25]), 3.91; in test [21] (setting [25]), “below the threshold”; in test [22] (setting [25]), “below the threshold”; in test [23] (setting [25]) it was 4.01; in [24] (setting [25]) it was “below the threshold”.
Take SLNANEVEWF [RNF130, Q86XS8]: the pKd entry is “below the threshold” in test [1] (setting [25]); “below the threshold” in test [2] (setting [25]); 4.15 in test [3] (setting [25]); 3.53 in test [4] (setting [25]); 5.28 in test [5] (setting [25]); 3.79 in test [6] (setting [25]). The pKd in test [7] (setting [25]) is 3.81; in test [8] (setting [25]), 3.63; in test [9] (setting [25]), 3.56; in test [10] (setting [25]), 4.05; in [11] (setting [25]) it was 3.68; in test [12] (setting [25]), “below the threshold”. Moreover, the pKd is 3.96 in [13] (setting [25]); “below the threshold” in test [14] (setting [25]); “below the threshold” in [15] (setting [25]); “below the threshold” in [16] (setting [25]); 3.96 in test [17] (setting [25]); “below the threshold” in test [18] (setting [25]). In addition, the pKd entry in test [19] (setting [25]) is “below the threshold”; in [20] (setting [25]), “below the threshold”; in [21] (setting [25]), 4.56; in test [22] (setting [25]) it was “below the threshold”; in test [23] (setting [25]) it was 3.73; in test [24] (setting [25]), “below the threshold”.
Turning to TRKRSGEAAV [PFKM, P08237], the pKd entry was “below the threshold” in test [1] (setting [25]); “below the threshold” in test [2] (setting [25]); 3.88 in [3] (setting [25]); “below the threshold” in test [4] (setting [25]); “below the threshold” in test [5] (setting [25]); 3.9 in test [6] (setting [25]). Further, the pKd result in test [7] (setting [25]), in [8] (setting [25]), in test [9] (setting [25]), in [10] (setting [25]), in test [11] (setting [25]) and in test [12] (setting [25]) was “below the threshold” each time. For the same molecule, the pKd in test [13] (setting [25]) was 4.08; in [14] (setting [25]), “below the threshold”; in [15] (setting [25]), “below the threshold”; in test [16] (setting [25]) it was “below the threshold”; in test [17] (setting [25]) it was “below the threshold”; in test [18] (setting [25]), “below the threshold”. For the same molecule, the pKd in test [19] (setting [25]) was 3.63; in [20] (setting [25]), “below the threshold”; in test [21] (setting [25]), “below the threshold”; in [22] (setting [25]) it was “below the threshold”; in [23] (setting [25]), “below the threshold”; in [24] (setting [25]) it was “below the threshold”.
Consider EKQAKGDTEF [CACYBP, Q9HB71], for which the pKd result in test [1] (setting [26]), in test [2] (setting [26]), in test [3] (setting [26]), in test [4] (setting [26]), in test [5] (setting [26]) and in [6] (setting [26]) was “below the threshold” in each case. Also, the pKd result in [7] (setting [26]), in test [8] (setting [26]), in test [9] (setting [26]), in [10] (setting [26]), in [11] (setting [26]) and in [12] (setting [26]) was “below the threshold” each time. Moreover, the pKd result in test [13] (setting [26]), in [14] (setting [26]), in [15] (setting [26]), in [16] (setting [26]), in [17] (setting [26]) and in test [18] (setting [26]) was “below the threshold” each time. Also, the pKd result in test [19] (setting [26]) is “below the threshold”; in test [20] (setting [26]), “below the threshold”; in test [21] (setting [26]) it was 3.55; in [22] (setting [26]) it was “below the threshold”; in test [23] (setting [26]), “below the threshold”; in test [24] (setting [26]), “below the threshold”.

The term pKd denotes the negative decadic logarithm of the Kd, by convention in mol/L.
